Test results: publication PMC6629437 (Cell, 2019)

Key:
[1] = target: HA head domain of H7 A/Shanghai/02/2013 (Influenza A virus A/Shanghai/02/2013 …, UniProt R4NN21, strain); assay: BLI
[2] = target: HA head domain of H3 A/Victoria/361/2011 (Influenza A virus A/Victoria/361/2011 …, UniProt A0A097PF39, strain); assay: BLI
[3] = target: H1 HA of A/California/04/2009, His-tagged soluble HA (competition assay) (Influenza A virus A/California/04/2009 …, UniProt C3W5S1, strain); assay: BLI
[4] = target: T1, HA head domain of H1 A/Solomon Islands/3/2006 (Influenza A virus A/Solomon …, strain); assay: BLI
T1 chain: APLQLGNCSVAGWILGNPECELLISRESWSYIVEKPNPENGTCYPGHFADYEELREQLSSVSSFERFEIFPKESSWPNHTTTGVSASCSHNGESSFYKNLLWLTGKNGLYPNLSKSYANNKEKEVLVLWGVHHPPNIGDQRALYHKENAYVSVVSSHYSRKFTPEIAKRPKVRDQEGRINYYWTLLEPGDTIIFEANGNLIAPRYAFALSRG

[5] = target: H7 HA of A/New York/107/2003 (Influenza A virus A/New York/107/2003 …, UniProt B2LVD7, strain); assay: ELISA
[6] = target: monomeric HA head domain of H5 A/Vietnam/1203/2004 (Influenza A virus A/Vietnam/1203/2004 …, UniProt Q5EP31, strain); assay: HDX-MS
[7] = target: H7 HA0 trimer of A/Shanghai/02/2013 (uncleaved, baculovirus-expressed ectodomain) (Influenza A virus A/Shanghai/02/2013 …, UniProt R4NN21, strain); assay: BLI
[8] = target: H1 HA0 trimer of A/California/04/2009 (uncleaved, baculovirus-expressed ectodomain) (influenza A virus A/California/04/2009 …); assay: BLI
[9] = target: HA head domain of H3 A/Hong Kong/1/1968 (Influenza A virus A/Hong Kong/1/1968 …, strain); assay: crystal structure
[10] = target: H5 HA of A/Indonesia/5/2005 (Influenza A virus A/Indonesia/5/2005 …, UniProt A5A5L7, strain); assay: ELISA
H1 HA of A/Texas/36/1991 = H1 HA of A/Texas/36/1991 (Influenza A virus A/Texas/36/1991 (H1N1), UniProt Q6WG02, strain); assay: ELISA

Measured: binding result

B1: FluA-20 IgG (hybridoma-generated) (antibody, V domains shown)
VH: QVQLEESGPGLVKPSETLSLTCSVSGVSVTSDIYYWTWIRQPPGKGLEWIGYIFYNGDTNYNPSLKSRVTMSIDTSKNEFSLRLTSVTAADTAVYFCARGTEDLGYCSSGSCPNHWGQGTLVTVSS
VL: DIVMTQSPSSLSASIGDRVTITCRPSQNIRSFLNWFQHKPGKAPKLLIYAASNLQSGVPSRFSGSGSGTEFTLTIRSLQPEDFATYYCQQSYNTPPTFGQGTKVEIK
binds: [1] | [2] | [3] | [4] | [5] | [6]

B2: rFluA-20 Fab (Fab, V domains shown)
VH: B1 VH
VL: B1 VL
binds: [7] | [8] | [9]

B3: rFluA-20 IgG (recombinant FluA-20 IgG) (antibody, V domains shown)
VH: B1 VH
VL: B1 VL
binds: [10] | [5] | H1 HA of A/Texas/36/1991
